Experiments:
[1] = biological target: T1, hPD-1-Fc (human, UniProt Q15116 25-167); assay: blocking ELISA, PD-1 to PD-L1
T1 construct: domain: IgV domain; also called human PD-1-Fc; not shown: human IgG1 Fc

[2] = biological target: T2, hPD-1-his (human, UniProt Q15116 25-167); assay: ELISA, biotin-PD-1-his on streptavidin
T2 construct: domain: IgV domain; monomer in solution; biotin-labelled where captured by streptavidin; also called biotin-hPD-1-his

[3] = biological target: T3, human PD-1 expressed on cells (human, UniProt Q15116 25-288); assay: cell-based or functional assay
[4] = biological target: T1, hPD-1-Fc; assay: SPR, range over experiments
[5] = biological target: T2, hPD-1-his; assay: SPR, Exp. 4
[6] = biological target: T3, human PD-1 expressed on cells; assay: flow cytometry, hPD-1-Jurkat cells
[7] = biological target: T3, human PD-1 expressed on cells; assay: flow cytometry, hPD1-Jurkat cells
[8] = biological target: T1, hPD-1-Fc; assay: SPR, Exp. 1
[9] = biological target: T2, hPD-1-his; assay: SPR, Exp. 1
[10] = biological target: T2, hPD-1-his; assay: ELISA, biotin-hPD-1-his on streptavidin
[11] = biological target: T1, hPD-1-Fc; assay: SPR Biacore T200, PD-1-Fc immobilised
[12] = biological target: T1, hPD-1-Fc; assay: SPR, Exp. 3
[13] = biological target: T2, hPD-1-his; assay: SPR, Exp. 3
[14] = biological target: T2, hPD-1-his; assay: SPR Biacore T200, PD-1-his immobilised
[15] = biological target: T1, hPD-1-Fc; assay: blocking ELISA, hPD-1-Fc to hPD-L1-Fc
[16] = biological target: T3, human PD-1 expressed on cells; assay: flow cytometry, hPD1-293 cells
[17] = biological target: T1, hPD-1-Fc; assay: ELISA, hPD1-Fc coated
[18] = biological target: T2, hPD-1-his; assay: ELISA, hPD-1-his on anti-his
[19] = biological target: T2, hPD-1-his; assay: ELISA, PD-1-his on anti-his
[20] = biological target: T1, hPD-1-Fc; assay: ELISA, PD-1-Fc coated
[21] = biological target: T1, hPD-1-Fc; assay: SPR, Exp. 2
[22] = biological target: T2, hPD-1-his; assay: SPR, Exp. 2
[23] = biological target: T3, human PD-1 expressed on cells; assay: flow cytometry, activated PBMC donor two
[24] = biological target: T3, human PD-1 expressed on cells; assay: flow cytometry, SEB-activated PBMC donor
[25] = biological target: T3, human PD-1 expressed on cells; assay: flow cytometry, activated PBMC donor FA
[26] = biological target: T3, human PD-1 expressed on cells; assay: flow cytometry, hPD-1-293 cells
[27] = biological target: T1, hPD-1-Fc; assay: blocking ELISA, PD-1 to PD-L2
[28] = biological target: T3, human PD-1 expressed on cells; assay: flow cytometry, SEB-activated PBMC donor two
[29] = biological target: T4, mPD-1-Fc (mouse; human, UniProt Q02242 25-167, limits assumed); assay: blocking ELISA, mPD-1 to PD-L1
T4 construct: domain: IgV domain; not shown: human IgG1 Fc
T4 sequence (looked up): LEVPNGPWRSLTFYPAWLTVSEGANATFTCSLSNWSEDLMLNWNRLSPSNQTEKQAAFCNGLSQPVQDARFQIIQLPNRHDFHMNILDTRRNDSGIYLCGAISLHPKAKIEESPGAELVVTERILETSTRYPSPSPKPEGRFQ

T3 sequence (Q15116 25-288): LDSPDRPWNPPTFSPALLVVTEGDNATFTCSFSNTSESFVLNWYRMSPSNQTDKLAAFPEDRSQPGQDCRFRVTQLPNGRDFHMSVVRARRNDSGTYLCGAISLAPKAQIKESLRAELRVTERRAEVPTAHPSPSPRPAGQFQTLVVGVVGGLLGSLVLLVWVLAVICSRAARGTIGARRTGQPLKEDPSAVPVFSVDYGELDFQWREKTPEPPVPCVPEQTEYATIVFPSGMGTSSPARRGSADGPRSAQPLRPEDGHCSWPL
T1 sequence (Q15116 25-167 limits assumed): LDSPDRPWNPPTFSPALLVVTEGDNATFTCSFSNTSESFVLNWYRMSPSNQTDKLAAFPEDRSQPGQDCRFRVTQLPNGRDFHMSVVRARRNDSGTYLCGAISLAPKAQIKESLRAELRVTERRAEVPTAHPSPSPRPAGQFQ
T2 sequence (Q15116 other isoform, or with tags, fused parts or gaps limits assumed): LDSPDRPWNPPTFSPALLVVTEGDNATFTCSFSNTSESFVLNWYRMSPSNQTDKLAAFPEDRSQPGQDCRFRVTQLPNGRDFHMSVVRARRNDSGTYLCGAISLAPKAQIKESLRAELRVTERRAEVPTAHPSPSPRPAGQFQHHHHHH

B1: 33C4 (antibody, V domains shown)
VH: QVQLVQSGAEVKKPGSSVKVSCKASGGTFSSSVISWVRQAPGQGLEWMGGIIPIFGTANYAQKFQGRVTITADESTSTAYMELSSLRSEDTAVYYCAREGLGCSGGSCYSGYYYGMDVWGQGTTVTVSS
VL: DIVMTQSPLSLPVTPGEPASISCRSSQSLLHSNGYNYLDWYLQKPGQSPQLLIYEASSLHTGVPDRFSGSGSGTDFTLKISRVEAEDVGVYYCMQGSHWPYTFGQGTKLEIK
notes: also called 780_39
[1]
  IC50: 2.77 nM
  Inhibition % at 50 nM: 93.3%
  Inhibition, % at 5.56 nM: 88.9%
[2]
  EC50: 0.131 nM
[3]
  EC50, Promega blockade bioassay: 0.165 µg/mL
  Fold induction: 6.24 fold
[4]
  Kd: 0.01 to 0.02 nM
[5]
  Kd: < 0.054 nM
[6]
  MFI, 5 nM: 65.2 MFI
[7]
  EC50: 0.084 nM
  MFI at 5 nM: 98.3 MFI
[8]
  Kd: < 0.022 nM
[9]
  Kd: 0.704 nM
[10]
  EC50: 0.209 nM
  OD450 at 10 nM: 0.95 OD450
[11]
  Kd: 0.575 nM
[12]
  Kd: < 0.01 nM
[13]
  Kd: 0.274 nM
[14]
  Kd: 6.73 nM
[15]
  IC50: 2.06 nM
  Inhibition % at 5.6 nM: 91.2%
  Inhibition % at 50 nM: 92.5%
[16]
  EC50: 0.075 nM
  MFI at 5 nM: 48.2 MFI
[17]
  EC50: 0.177 nM
  OD450 at 10 nM: 0.925 OD450
[18]
  EC50: 0.061 nM
  OD450 at 10 nM: 0.578 OD450
[19]
  EC50: 0.142 nM
[20]
  EC50: 0.128 nM
[21]
  Kd: < 0.01 nM
[22]
  Kd: 0.205 nM
[23]
  EC50: 0.05 nM
  MFI at 25 nM: 18.7 MFI
[24]
  MFI, 5 nM: 77.8 MFI
[25]
  EC50: 0.041 nM
  MFI at 25 nM: 17.6 MFI
[26]
  MFI, 5 nM: 179 MFI
[27]
  IC50: 3.3 nM
  Inhibition, % at 3.7 nM: 53.4%
  Inhibition, % at 100 nM: 94.6%
[28]
  MFI, 5 nM: 66.9 MFI

B2: RMP1-14 (antibody, V domains shown)
VH: EVQLQESGPGLVKPSQSLSLTCSVTGYSITSSYRWNWIRKFPGNRLEWMGYINSAGISNYNPSLKRRISITRDTSKNQFFLQVNSVTTEDAATYYCARSDNMGTTPFTYWGQGTLVTVSS
VL: DIVMTQGTLPNPVPSGESVSITCRSSKSLLYSDGKTYLNWYLQRPGQSPQLLIYWMSTRASGVSDRFSGSGSGTDFTLKISGVEAEDVGIYYCQQGLEFPTFGGGTKLELK
[29]
  IC50: 0.635 nM

Source: US20230416363A1 (KADMON, published 2023)
